From patent publication US9486502B2, “Methods of administering interferon gamma to absorb fluid from the subretinal space” (The United States of America, as represented by the …, priority 2008, dated 2016)
Entries after “also recorded” stand apart in the source; their conditions may differ.

Assays:
hfRPE = assay: quantitative real-time PCR of gene expression in IFNγ-treated hfRPE; assay type: cell-based, human; settings: for Threshold Cycle (Ct) CFTR / Threshold Cycle (Ct) IFNGR1 / Threshold Cycle (Ct) IFNGR2 / Threshold Cycle (Ct) IRF-1 / Threshold Cycle (Ct) IRF-2 / Threshold Cycle (Ct) PIAS1 / Threshold Cycle (Ct) SOCS3 / Threshold Cycle (Ct) STAT1 / Threshold Cycle (Ct) NOS2A / Threshold Cycle (Ct) IRF-8: IFNγ 25 ng/ml
Method: qRT-PCR was performed as previously described in Li, R. et al., 2007, Invest Ophthalmol Vis Sci, 48, 5722-5732—incorporated by reference in its entirety herein. Confluent monolayers of hfRPE cultured in 24-well plates were treated with IFNγ (25 ng/ml) in SFM and harvested at 0 minutes, 30 minutes, 2 hours, 6 hours, 15 hours and 24 hours, in triplicate for each time point. 1 μg total mRNA isolated from the harvested cells (RNeasy Kit, Qiagen) was reverse-transcribed (SuperScript® III First-Strand Synthesis System for RT-PCR, Invitrogen). Real-time PCR (TagMan®, Applied Biosystems) was used to quantify expression of the interferon regulatory factors IRF-1, IRF-2, and IRF-8; signal transducer and activator of transcription 1 (STAT1); suppressor of cytokine signaling 3 (SOCS3); protein inhibitor of activated STAT1 (PIAS1); inducible nitric oxide synthase (NOS2A); IFNγ receptor subunit R1 (IFNGR1); IFNα receptor subunit R1 (IFNAR1); IFNγ receptor subunit R2 (IFNGR2); cystic fibrosis transmembrane conductance regulator (CFTR); and Glyceraldehyde 3-phosphate dehydrogenase (GAPDH). The mRNA concentration of each gene was normalized against GAPDH. qRT-PCR was performed on the ABI Sequence Detection System 7900 (Applied Biosystems).

hfCHC cells = assay: BrdU incorporation assay, human fetal choroidal cell proliferation; assay type: cell-based
hfRPE cells = assay: wound healing assay, hfRPE migration; assay type: cell-based, human; settings: 48 hours, proliferation suppressed with mitomycin C
Method: The wound healing assay was used to study the effects of inflammatory cytokines on hfRPE cell migration, as described previously in Li, R., et al. Invest Ophthalmol Vis Sci, 2007, 48, 5722-5732, incorporated herein by reference in its entirety. Cell proliferation was suppressed by incubation with 10 μg/ml mitomycin C (Sigma) for 2 hours before all migration experiments. A circular denuded area (7 mm in diameter) was made in each well using a custom designed cell scraper. After incubation with various inflammatory cytokines for 48 hours, cells were fixed with cold methanol and stained with ethidium homodimer-1 (EthD-1, Invitrogen) according to the manufacturer's instructions. Cell migration was quantified by counting the average number of cells that migrated into the denuded area in 16 microscope fields surrounding the circumference of the denuded area. Each condition was tested in triplicate and repeated using cells from different donors.

B1: IFNγ: pleiotropic cytokine produced by T- and NK-cells; obtained from Peprotech (protein, UniProt P01579 24-161, looked up)
Interferon gamma: QDPYVKEAENLKKYFNAGHSDVADNGTLFLGILKNWKEESDRKIMQSQIVSFYFKLFKNFKDDQSIQKSVETIKEDMNVKFFNSNKKKRDDFEKLTNYSVTDLNVQRKAIHELIQVMAELSPAAKTGKRKRSQMLFRG
With B1 the “IRF-2 mRNA fold change” value (hfRPE; 25 ng/ml IFNγ, hfRPE) was 3 fold, the “up-regulation of IRF-1 transcription” value (hfRPE; 25 ng/ml IFNγ, hfRPE) was > 400 fold and the “up-regulation of STAT1 transcription” value (hfRPE; 25 ng/ml IFNγ, hfRPE) was > 30 fold. The “Threshold Cycle (Ct) CFTR” value (hfRPE; 0 hr) was 38.0, the “Threshold Cycle (Ct) IFNGR1” value (hfRPE; 0 hr) was 26.4 and the “Threshold Cycle (Ct) IFNGR2” value (hfRPE; 0 hr) was 26.0. For the same molecule, the “Threshold Cycle (Ct) IRF-1” value (hfRPE; 0 hr) was 31.1, the “Threshold Cycle (Ct) IRF-2” value (hfRPE; 0 hr) was 27.6 and the “Threshold Cycle (Ct) PIAS1” value (hfRPE; 0 hr) was 27.0. For the same molecule, the “Threshold Cycle (Ct) SOCS3” value (hfRPE; 0 hr) was 26.9, the “Threshold Cycle (Ct) STAT1” value (hfRPE; 0 hr) was 26.2 and the “Threshold Cycle (Ct) CFTR” value (hfRPE; 0.5 hr) was 36.9. For the same molecule, the “Threshold Cycle (Ct) IFNGR1” value (hfRPE; 0.5 hr) was 26.4, the “Threshold Cycle (Ct) IFNGR2” value (hfRPE; 0.5 hr) was 26.0 and the “Threshold Cycle (Ct) IRF-1” value (hfRPE; 0.5 hr) was 27.4. For the same molecule, the “Threshold Cycle (Ct) IRF-2” value (hfRPE; 0.5 hr) was 27.6, the “Threshold Cycle (Ct) NOS2A” value (hfRPE; 0.5 hr) was 39.1 and the “Threshold Cycle (Ct) PIAS1” value (hfRPE; 0.5 hr) was 26.9. The “Threshold Cycle (Ct) SOCS3” value (hfRPE; 0.5 hr) was 25.4, the “Threshold Cycle (Ct) STAT1” value (hfRPE; 0.5 hr) was 25.8 and the “Threshold Cycle (Ct) CFTR” value (hfRPE; 2 hr) was 37.3. For the same molecule, the “Threshold Cycle (Ct) IFNGR1” value (hfRPE; 2 hr) was 26.4, the “Threshold Cycle (Ct) IFNGR2” value (hfRPE; 2 hr) was 25.1 and the “Threshold Cycle (Ct) IRF-1” value (hfRPE; 2 hr) was 22.2. The “Threshold Cycle (Ct) IRF-2” value (hfRPE; 2 hr) was 26.0, the “Threshold Cycle (Ct) IRF-8” value (hfRPE; 2 hr) was 30.9 and the “Threshold Cycle (Ct) NOS2A” value (hfRPE; 2 hr) was 35.9. The “Threshold Cycle (Ct) PIAS1” value (hfRPE; 2 hr) was 27.2, the “Threshold Cycle (Ct) SOCS3” value (hfRPE; 2 hr) was 24.6 and the “Threshold Cycle (Ct) STAT1” value (hfRPE; 2 hr) was 22.1. The “Threshold Cycle (Ct) CFTR” value (hfRPE; 6 hr) was 38.5, the “Threshold Cycle (Ct) IFNGR1” value (hfRPE; 6 hr) was 26.3 and the “Threshold Cycle (Ct) IFNGR2” value (hfRPE; 6 hr) was 24.7. The “Threshold Cycle (Ct) IRF-1” value (hfRPE; 6 hr) was 22.3, the “Threshold Cycle (Ct) IRF-2” value (hfRPE; 6 hr) was 25.6 and the “Threshold Cycle (Ct) IRF-8” value (hfRPE; 6 hr) was 31.1. For the same molecule, the “Threshold Cycle (Ct) NOS2A” value (hfRPE; 6 hr) was 31.6, the “Threshold Cycle (Ct) PIAS1” value (hfRPE; 6 hr) was 27.1 and the “Threshold Cycle (Ct) SOCS3” value (hfRPE; 6 hr) was 24.0. For the same molecule, the “Threshold Cycle (Ct) STAT1” value (hfRPE; 6 hr) was 21.0, the “Threshold Cycle (Ct) IFNGR1” value (hfRPE; 15 hr) was 26.5 and the “Threshold Cycle (Ct) IFNGR2” value (hfRPE; 15 hr) was 25.1. The “Threshold Cycle (Ct) IRF-1” value (hfRPE; 15 hr) was 22.3, the “Threshold Cycle (Ct) IRF-2” value (hfRPE; 15 hr) was 26.0 and the “Threshold Cycle (Ct) IRF-8” value (hfRPE; 15 hr) was 32.0. For the same molecule, the “Threshold Cycle (Ct) NOS2A” value (hfRPE; 15 hr) was 32.7, the “Threshold Cycle (Ct) PIAS1” value (hfRPE; 15 hr) was 26.8 and the “Threshold Cycle (Ct) SOCS3” value (hfRPE; 15 hr) was 24.8. For the same molecule, the “Threshold Cycle (Ct) STAT1” value (hfRPE; 15 hr) was 21.3, the “Threshold Cycle (Ct) CFTR” value (hfRPE; 24 hr) was 37.9 and the “Threshold Cycle (Ct) IFNGR1” value (hfRPE; 24 hr) was 26.3. For the same molecule, the “Threshold Cycle (Ct) IFNGR2” value (hfRPE; 24 hr) was 25.2, the “Threshold Cycle (Ct) IRF-1” value (hfRPE; 24 hr) was 22.2 and the “Threshold Cycle (Ct) IRF-2” value (hfRPE; 24 hr) was 26.1. For the same molecule, the “Threshold Cycle (Ct) IRF-8” value (hfRPE; 24 hr) was 31.9, the “Threshold Cycle (Ct) NOS2A” value (hfRPE; 24 hr) was 33.5 and the “Threshold Cycle (Ct) PIAS1” value (hfRPE; 24 hr) was 26.7. For the same molecule, the “Threshold Cycle (Ct) SOCS3” value (hfRPE; 24 hr) was 24.9, the “Threshold Cycle (Ct) STAT1” value (hfRPE; 24 hr) was 21.2 and the “SOCS3 mRNA levels” value (hfRPE; IFNγ-treated hfRPE) was “increased”. The “effect on CFTR mRNA expression” value (hfRPE; IFNγ-treated hfRPE) was “No effect; also recorded: small decrease”, the “effect on IFNGR1 expression” value (hfRPE; IFNγ-treated hfRPE) was “No effect” and the “effect on PIAS1 expression” value (hfRPE; IFNγ-treated hfRPE) was “No effect; also recorded: does not affect”. The “increase of SOCS3 mRNA” value (hfRPE; IFNγ-treated hfRPE) was 7 fold, the “IRF-8 mRNA detectability” value (hfRPE; after 2 hours of IFNγ, constitutive level under detection) was “became detectable” and the “increase in IFNGR2 expression” value (hfRPE; after 6 hours of IFNγ) was “≈ 2 fold”. For the same molecule, the “NOS2A expression” value (hfRPE; after 6 hours of IFNγ, constitutive levels undetectable) was “significantly up-regulated”, the “effect on hfCHC (human fetal choroidal) cell proliferation” value (hfCHC cells) was “stimulatory effect” and the “effect on hfRPE cell migration” value (hfRPE cells) was “significantly inhibited”.
